Biological target: Prochlorococcus marinus MED4 aldehyde decarbonylase (MED4_ADC), wild type

B1: Prochlorococcus marinus MED4 acyl-ACP reductase (MED4_AAR), wild type (protein)
chain: MAFGLIGHSTSFEDAKRKASLLGFDHIADGDLDVWCTAPPQLVENVEVKSAIGISIEGSYIDSCFVPEMLSRFKTARRKVLNAMELAQKKGINITALGGFTSIIFENFNLLQHKQIRNTSLEWERFTTGNTHTAWVICRQLEMNAPKIGIDLKSATVAVVGATGDIGSAVCRWLINKTGIGELLLVARQKEPLDSLQKELDGGTIKNLDEALPEADIVVWVASMPKTMEIDANNLKQPCLMIDGGYPKNLDEKFQGNNIHVVKGGIVRFFNDIGWNMMELAEMQNPQREMFACFAEAMILEFEKCHTNFSWGRNNISLEKMEFIGAASVKHGFSAIGLDKHPKVLAV
products detected on coexpression in E. coli (AAR catalytic activity): when only MED4_AAR is expressed in E. coli no products are detected, and when MED4_AAR and ADC are coexpressed in E. coli the only products detected are alkanes

Source: patent US20150361454
